Experimental data taken from article PMC5680807 (mAbs, 2017).
Positions count from the first letter of the chain named.

B1: AFD.v9 (Fab, V domains shown)
VH: EVQLVQSGPELKKPGASVKVSCKASGYTFTNYGMNWVRQAPGQGLEWMGWINTYTGETTYAEDFKGRFVFSLDTSVSTAYLQISSLKAEDTAVYYCEREGGVNNWGQGTLVTVSS
VL: DIQVTQSPSSLSASVGDRVTITCITSTSIESDMSWYQQKPGKVPKLLISGGNTLRPGVPSRFSGSGSGTDFTLTISSLQPEDVATYYCLQSDSLPYTFGQGTKVEIK
B2: AFD.v14 (Fab, V domains shown)
VH: B1 VH with N103S
VL: B1 VL with S34N
B3: AFD.v1 (Fab, V domains shown)
VH: B1 VH with E62D
VL: B1 VL with E30D, S31D, S34N
B4: AFD.v2 (Fab, V domains shown)
VH: B1 VH with E62D
VL: B1 VL with S28D, S31D, S34N
B5: AFD.v3 (Fab, V domains shown)
VH: B1 VH with E62D
VL: B1 VL with S28D, E30D, S34N
B6: AFD.v4 (Fab, V domains shown)
VH: B1 VH with E62D
VL: B1 VL with S28D, E30D, S31D, D32S, S34N
B7: AFD.v5 (Fab, V domains shown)
VH: B1 VH with E62D
VL: B1 VL with E30D, D32S, S34N
B8: AFD.v6 (Fab, V domains shown)
VH: B1 VH
VL: B1 VL with S28D, S34N
B9: AFD.v7 (Fab, V domains shown)
VH: B1 VH
VL: B1 VL with S28D, S34N, D92E
B10: AFD.v8 (Fab, V domains shown)
VH: B1 VH
VL: B1 VL with S34N

How the values were obtained:
[1] = biological target: basic species of AFD (VL Asp-30 isomerized to the cyclic intermediate form)
[2] = biological target: human complement factor D (CFD) (Homo sapiens, UniProt P00746); assay: SPR

fold decrease in CFD-binding affinity against AFD [1] [fold] | Kd [2] [pM] | Molecule
2 |  | human complement factor D (CFD) (from UniProt P00746 26-253) (enzyme)
 | 30 | B1
 | 25.6 ± 6.3 | B2
 | ≤ 10 | B3
 | ≤ 10 | B4
 | ≤ 10 | B5
 | 26 | B6
 | 280 | B7
 | ≤ 10 | B8
 | ≤ 10 | B9
 | 16.7 ± 4.4 | B10
